{"source": "paper PMC7939478", "about": "“Development of a novel mammalian display system for selection of antibodies against membrane proteins” (The Journal of Biological Chemistry, 2020)", "target": "T1, human epithelial cell adhesion molecule (EpCAM) on CHO–EpCAM cells (Homo sapiens, UniProt P16422)", "T1 construct": "BC014785.1, expressed on the surface of CHO cells; source: CHO-X cells, lentiviral transduction, doxycycline-inducible, on the cell surface (clone SP1D12)", "T1 sequence (P16422 24-314)": "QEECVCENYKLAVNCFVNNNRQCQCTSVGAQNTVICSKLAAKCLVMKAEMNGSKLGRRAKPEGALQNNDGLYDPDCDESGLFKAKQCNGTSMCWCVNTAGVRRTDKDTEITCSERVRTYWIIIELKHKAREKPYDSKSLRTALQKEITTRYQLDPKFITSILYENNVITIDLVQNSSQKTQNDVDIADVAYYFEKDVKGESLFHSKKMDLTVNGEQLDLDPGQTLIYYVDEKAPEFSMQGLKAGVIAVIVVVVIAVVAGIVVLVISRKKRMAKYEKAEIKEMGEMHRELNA", "assay": "flow cytometry on cells; self-labeling: CHO–EpCAM cells transduced with the HA-tagged scFv, cultured 3 days with or without doxycycline, stained with anti-HA-PE", "settings": "partners not purified", "data": [{"binder": "known anti-EpCAM scFv with a C-terminal HA tag (scFv, V domains shown, Cloned into the pSF lentivector used for the scFv library; also called control anti-EpCAM scFv; source: CHO–EpCAM cells, lentiviral transduction, secreted by the same cells that carry the target; not shown: HA, C-terminal, kept) VH: VQLLEQSGAELVRPGTSVKISCKASGYAFTNYWLGWVKQRPGHGLEWIGDIFPGSGNIHYNEKFKGKATLTADKSSSTAYMQLSSLTFEDSAVYFCARLRNWDEPMDYWGQGTTVTVSS VL: ELVMTQSPSSLTVTAGEKVTMSCKSSQSLLNSGNQKNYLTWYQQKPGQPPKLLIYWASTRESGVPDRFTGSGSGTDFTLTISSVQAEDLAVYYCQNDYSYPLTFGAGTKLEIK", "values": [{"measurement": "fold increase in self-labeling signal (with against without doxycycline)", "result": "> 100", "unit": "fold"}]}]}
